According to US20130189747A1, “Compositions Comprising A Polypeptide Having Cellulolytic Enhancing Activity And A Sulfur-Containing Compound And Uses Thereof” (priority 2010, published 2013):
“Also recorded” adds a separate entry of the source.

Experiments:
Assay type in all cases: biochemical
[1] = system: Trichoderma reesei cellulase composition; test: Hydrolysis of AVICEL® (microcrystalline cellulose) by the Trichoderma reesei cellulase composition with/without GH61 polypeptide and sulfur-containing compound
Method: (§1) The effect of various sulfur-containing compounds on the cellulolytic enhancing activity of GH61 polypeptides was evaluated according to the procedures described below.

[2] = system: Trichoderma reesei cellulase composition; test: Hydrolysis of milled unwashed pretreated corn stover (PCS) by the Trichoderma reesei cellulase composition with/without GH61 polypeptide and sulfur-containing compound; conditions: for Enhancement of hydrolysis of milled unwashed PCS by the GH61 polypeptide: no sulfur-containing compound
Method: as §1

[3] = system: Trichoderma reesei cellulase composition; test: Hydrolysis of milled washed pretreated corn stover (PCS) by the Trichoderma reesei cellulase composition with/without GH61 polypeptide and sulfur-containing compound; conditions: for Enhancement of hydrolysis of milled washed PCS by the GH61 polypeptide: no sulfur-containing compound; for GH61 effect (Equation 4): in the absence of L-cysteine (Example 4); for Percent conversion of milled washed PCS: no L-cysteine
Method: as §1

B1: T. aurantiacus GH61A polypeptide: GH61A polypeptide having cellulolytic enhancing activity (SEQ ID NO: 14), recombinantly prepared in Aspergillus oryzae JaL250 (protein, listed as Thermoascus aurantiacus)
chain: MSFSKIIATAGVLASASLVAGHGFVQNIVIDGKYYGGYLVNQYPYMSNPPEVIAWSTTATDLGFVDGTGYQTPDIICHRGAKPGALTAPVSPGGTVELQWTPWPDSHHGPVINYLAPCNGDCSTVDKTQLEFFKIAESGLINDDNPPGIWASDNLIAANNSWTVTIPTTIAPGNYVLRHEIIALHSAQNQDGAQNYPQCINLQVTGGGSDNPAGTLGTALYHDTDPGILINIYQKLSSYIIPGPPLYTG
[1]; AVICEL®, day 1, in the absence of L-cysteine, all GH61 concentrations tested (5.6, 14, 28 mg per liter), FIG. 3B
  GH61 effect (Equation 4): 1
[1]; AVICEL®, day 1, intermediate L-cysteine concentrations, FIG. 3B
  GH61 polypeptide concentration at which the GH61 effect was maximal: approximately 15 mg per liter
[1]; in the absence of a sulfur-containing compound
  Effect of the GH61 polypeptide on hydrolysis of AVICEL® (microcrystalline cellulose) by the T. reesei cellulase composition: did not enhance; also recorded: no detectable effect
[2]; 1 day
  Enhancement of hydrolysis of milled unwashed PCS by the GH61 polypeptide: 19%
[2]; 3 days
  Enhancement of hydrolysis of milled unwashed PCS by the GH61 polypeptide: 21%
[2]; 7 days
  Enhancement of hydrolysis of milled unwashed PCS by the GH61 polypeptide: 19%
[2]; milled unwashed PCS, 7 days, in the absence of L-cysteine (Example 4)
  GH61 effect (Equation 4): 1.19±0.08
[3]; 1 day
  Enhancement of hydrolysis of milled washed PCS by the GH61 polypeptide: 14%
[3]; 3 days
  Enhancement of hydrolysis of milled washed PCS by the GH61 polypeptide: 31%
[3]; 7 days
  Enhancement of hydrolysis of milled washed PCS by the GH61 polypeptide: 31%
[3]; PCS, 3 days
  GH61 effect (Equation 4): 1.31±0.030
[3]; day 1, GH61 polypeptide at 10% (w/w) of the cellulase composition (2 mg per g cellulose)
  Percent conversion of milled washed PCS: 27±0.8%
[3]; day 1, GH61 polypeptide at 25% (w/w) of the cellulase composition (2 mg per g cellulose)
  Percent conversion of milled washed PCS: 27±0.8%
[3]; day 1, GH61 polypeptide at 50% (w/w) of the cellulase composition (2 mg per g cellulose)
  Percent conversion of milled washed PCS: 27±0.8%
[3]; day 3, GH61 polypeptide at 10% (w/w) of the cellulase composition (2 mg per g cellulose)
  Percent conversion of milled washed PCS: 55±3%
[3]; day 3, GH61 polypeptide at 25% (w/w) of the cellulase composition (2 mg per g cellulose)
  Percent conversion of milled washed PCS: 57±0.5%
[3]; day 3, GH61 polypeptide at 50% (w/w) of the cellulase composition (2 mg per g cellulose)
  Percent conversion of milled washed PCS: 59±2%
[3]; milled washed PCS, 7 days
  GH61 effect (Equation 4): approximately 1.31±0.03
